Data reported in patent US20240076689A1, “VIRAL VECTORS AND NUCLEIC ACIDS FOR REGULATED GENE THERAPY” (Boehringer Ingelheim International GmbH, priority 2020, published 2024).

Assays:
[1] = four 100 mg/kg Tet doses in 8 h intervals
[2] = tested on: IL-12 and IFNγ plasma levels, body weight, liver enzymes; test: Dose-finding study to determine PK and safety of Tet-switch-controlled IL-12 (FIG. 18); conditions: 30 mg/kg i.p. twice daily for 5 consecutive days
[3] = Tet plasma concentration in the mIL-12 time course study; conditions: female, C57Bl/6, mouse, in vivo
[4] = tested on: eGFP expression in HEK293 cells; test: Tet-dependent eGFP expression from K19 constructs in transfected HEK293 cells; conditions: HEK293, independent of Tet
[5] = tested on: eGFP and sNLuc expression in HEK293 cells; test: K19 riboswitch kinetics in HEK293 cells (qPCR, fluorescence, Western blot, sNLuc)

## CN(C)[C@@H]1C(O)=C(C(N)=O)C(=O)[C@@]2(O)C(O)=C3C(=O)c4c(O)cccc4[C@@](C)(O)[C@H]3C[C@@H]12 [Tet, tetracycline]
[1]
  other signs of toxicity: no other signs of toxicity were observed
[2]
  tolerability of Tet (in words): well tolerated
[3]; 10 mg/kg
  concentration at 8 h: 100 nM
[3]; 30 mg/kg
  concentration at 8 h: 750 nM

B1: catalytically inactive K19 switch: control plasmid harboring a catalytically inactive, non-cleaving K19 switch (SEQ ID No. 45) (nucleic acid)
chain: GGCGCGTCCTGGATTCGTGGTAAAACATACCAGATTTCGATCTGGAGAGGTGAAGAATACGACCACCTACTACATCCAGCTGATGAGTCCCAAATAGGACGAGACGCGCT
modifications: the letters are possibly those of the target site
[4]
  steady eGFP expression level, of constitutive signal: about 90%

B2: K19: Tet-responsive aptazyme: tetracycline aptamer plus hammerhead ribozyme N79 (Beilstein et al. 2015), SEQ ID NO:9/10; tested in active-switch plasmids (nucleic acid)
chain 1: GGCGCGTCCTGGATTCGTGGTAAAACATACCAGATTTCGATCTGGAGAGGTGAAGAATACGACCACCTACTACATCCAGCTGATGAGTCCCAAATAGGACGAAACGCGCT
chain 2: GGCGCGUCCUGGAUUCGUGGUAAAACAUACCAGAUUUCGAUCUGGAGAGGUGAAGAAUACGACCACCUACUACAUCCAGCUGAUGAGUCCCAAAUAGGACGAAACGCGCU
modifications: chemistry not fully specified; one strand in two spellings; the letters are possibly those of the target site
[5]; HEK293, 50 μM Tet
  onset of eGFP expression induction on the mRNA level after Tet addition: 15 min
  onset of increase in direct eGFP fluorescence signal after Tet addition: two
  time to full induction on the mRNA level: four
[5]; HEK293 previously grown in presence of Tet
  reversibility upon Tet retraction (in words): relative decrease in sNLuc expression was observed
[5]; HEK293 supernatant
  Tet-induced sNLuc increase detected after addition: 2 h
  time to saturation of sNLuc increase: 4 to 8 h
